Reference: patent US20240408202A1 (HEALTH RESEARCH, published 2024)

What was measured:
mouse CD3ε [1] = target: T1, mouse CD3ε (mouse, UniProt P22646 22-189); test: flow cytometry on mouse CD8+ T cells, anti-His tag detection; staining control
T1 construct: whole, on cells; The assay stained mouse T cells; also called mCD3e
Text: (§1) The DNA sequence corresponding to the G(EAAAK)3 (SEQ ID NO:9) linker ([…] (SEQ ID NO:8), followed by Mov19 scFv, 6× His Tag, Furin cleavage peptide, SGSG linker+P2A translational skipping sequence, and monomeric enhanced GFP (eGFP) reporter (to monitor transduction efficiency) was PCR amplified from an existing plasmid to generate overlapping DNA fragments amenable to assembly using NEBuilder (FIG. 7A). FR—B and FR-Bh sequences along with GFP reporter genes were inserted into the previously described retroviral vector¹ using NotI and PacI restriction sites, with DNA fragments assembled using NEBuilder HIFI DNA assembly (New England Biolabs). Plasmid sequences were confirmed by Sanger Sequencing, and retroviruses used to transduce human or mouse cells produced in PG13 or PLAT-E retroviral packaging cells lines, respectively. For murine studies, control T cells were either transduced with a retrovirus expressing a codon-optimized Luciferase (Luc2)-P2A-GFP gene and produced in PLAT-E cells or were Mock transduced. […] In all cases, cell culture supernatant from high-titer retrovirus producing clones was collected and used for viral transduction. For initial testing of BiTEs for antigen-specific binding, 293T cells were retrovirally transduced, followed by collection of 293T cell culture supernatants. […]

[2] = target: T2, human Folate Receptor alpha (FRα) (human, UniProt P15328 25-234); test: flow cytometry, BiTE supernatant on FRα+ cancer cells, anti-His tag detection
T2 construct: whole, on cells; also called hFRα; hFRa
Text: as §1

human CD3ε [3] = target: T3, human CD3ε (human, UniProt P07766 23-207); test: flow cytometry, BiTE supernatant on human T cells, anti-His tag detection
T3 construct: whole, on cells; The assay stained human T cells; also called hCD3e; CD3e
Text: as §1

[4] = target: T2, human Folate Receptor alpha (FRα); test: flow cytometry, BiTE supernatant on IE9-mp1-hFRa cells, anti-His tag detection
Text: as §1

mouse CD3ε [5] = target: T1, mouse CD3ε; test: flow cytometry, BiTE supernatant on mouse T cells, anti-His tag detection
Text: as §1

human CD3ε [6] = target: T3, human CD3ε; test: flow cytometry on human T cells, anti-His tag detection
Text: as §1

T2 sequence (P15328 25-234): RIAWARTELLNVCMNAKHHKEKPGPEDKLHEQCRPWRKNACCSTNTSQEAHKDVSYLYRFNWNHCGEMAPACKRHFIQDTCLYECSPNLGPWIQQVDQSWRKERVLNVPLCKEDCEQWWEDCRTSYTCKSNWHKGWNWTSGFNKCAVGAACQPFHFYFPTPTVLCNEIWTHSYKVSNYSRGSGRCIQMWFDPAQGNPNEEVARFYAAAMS
T3 sequence (P07766 23-207): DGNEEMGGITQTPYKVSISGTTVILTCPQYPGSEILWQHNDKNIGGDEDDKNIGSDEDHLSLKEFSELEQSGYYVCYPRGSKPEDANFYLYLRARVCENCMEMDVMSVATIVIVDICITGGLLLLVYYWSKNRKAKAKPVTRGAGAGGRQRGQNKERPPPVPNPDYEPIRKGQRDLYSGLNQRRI
T1 sequence (P22646 22-189): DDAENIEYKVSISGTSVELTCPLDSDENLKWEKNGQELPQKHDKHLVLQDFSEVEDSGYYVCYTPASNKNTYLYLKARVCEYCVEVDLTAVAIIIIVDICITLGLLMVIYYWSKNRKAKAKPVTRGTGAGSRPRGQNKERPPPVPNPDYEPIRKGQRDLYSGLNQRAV

B1: FR-Bh, human FRα targeted BiTE (hCD3e scFv UCHT1 x hFRα scFv MOv19) (bispecific antibody)
chain: GMDIQMTQTTSSLSASLGDRVTISCRASQDIRNYLNWYQQKPDGTVKLLIYYTSRLHSGVPSKFSGSGSGTDYSLTISNLEQEDIATYFCQQGNTLPWTFAGGTKLEIKGGGGSGGGGSGGGGSGGGGSEVQLQQSGPELVKPGASMKISCKASGYSFTGYTMNWVKQSHGKNLEWMGLINPYKGVSTYNQKFKDKATLTVDKSSSTAYMELLSLTSEDSAVYYCARSGYYGDSDWYFDVWGQGTTLTVFSGEAAAKEAAAKEAAAKDIELTQSPASLAVSLGQRAIISCKASQSVSFAGTSLMHWYHQKPGQQPKLLIYRASNLEAGVPTRFSGSGSKTDFTLNIHPVEEEDAATYYCQQSREYPYTFGGGTKLEIKGSTSGSGKSSEGKGQVQLQQSGAELVKPGASVKISCKASGYSFTGYFMNWVKQSHGKSLEWIGRIHPYDGDTFYNQNFKDKATLTVDKSSNTAHMELLSLTSEDFAVYYCTRYDGSRAMDYWGQGTTVTVSSGSGHHHHHH
notes: also called FRα-specific BiTE
Question: Does B1 bind (mouse CD3ε [1])?
Answer: Result: no binding

Question: Does B1 bind [2]?
Answer: Result: binds

Question: Does B1 bind (human CD3ε [3])?
Answer: Result: binds

B2: FR-B, mouse FRα targeted BiTE (mCD3e scFv 145-2C11 x hFRα scFv MOv19), chimeric BiTE (bispecific antibody)
chain: GEVQLVESGGGLVQPGKSLKLSCEASGFTFSGYGMHWVRQAPGRGLESVAYITSSSINIKYADAVKGRFTVSRDNAKNLLFLQMNILKSEDTAMYYCARFDWDKNYWGQGTMVTVSSGGGGSGGGGSGGGGSDIQMTQSPSSLPASLGDRVTINCQASQDISNYLNWYQQKPGKAPKLLIYYTNKLADGVPSRFSGSGSGRDSSFTISSLESEDIGSYYCQQYYNYPWTFGPGTKLEIKGEAAAKEAAAKEAAAKDIELTQSPASLAVSLGQRAIISCKASQSVSFAGTSLMHWYHQKPGQQPKLLIYRASNLEAGVPTRFSGSGSKTDFTLNIHPVEEEDAATYYCQQSREYPYTFGGGTKLEIKGSTSGSGKSSEGKGQVQLQQSGAELVKPGASVKISCKASGYSFTGYFMNWVKQSHGKSLEWIGRIHPYDGDTFYNQNFKDKATLTVDKSSNTAHMELLSLTSEDFAVYYCTRYDGSRAMDYWGQGTTVTVSSGSGHHHHHH
notes: also called CONT-ENG; Cont-ENG
Question: Does B2 bind [4]?
Answer: Result: binds

Question: Does B2 bind (mouse CD3ε [5])?
Answer: Result: binds

Question: Does B2 bind (human CD3ε [6])?
Answer: Result: no binding
